# Laboratory results: patent publication US20100323375
# Legend:
# FLAG-APP = FLAG-APP (UniProt P05067)
# FLAG-Alcgamma = tested on: T1, FLAG-Alcgamma
# T1 sequence 1: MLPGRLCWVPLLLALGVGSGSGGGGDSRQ
# T1 sequence 2: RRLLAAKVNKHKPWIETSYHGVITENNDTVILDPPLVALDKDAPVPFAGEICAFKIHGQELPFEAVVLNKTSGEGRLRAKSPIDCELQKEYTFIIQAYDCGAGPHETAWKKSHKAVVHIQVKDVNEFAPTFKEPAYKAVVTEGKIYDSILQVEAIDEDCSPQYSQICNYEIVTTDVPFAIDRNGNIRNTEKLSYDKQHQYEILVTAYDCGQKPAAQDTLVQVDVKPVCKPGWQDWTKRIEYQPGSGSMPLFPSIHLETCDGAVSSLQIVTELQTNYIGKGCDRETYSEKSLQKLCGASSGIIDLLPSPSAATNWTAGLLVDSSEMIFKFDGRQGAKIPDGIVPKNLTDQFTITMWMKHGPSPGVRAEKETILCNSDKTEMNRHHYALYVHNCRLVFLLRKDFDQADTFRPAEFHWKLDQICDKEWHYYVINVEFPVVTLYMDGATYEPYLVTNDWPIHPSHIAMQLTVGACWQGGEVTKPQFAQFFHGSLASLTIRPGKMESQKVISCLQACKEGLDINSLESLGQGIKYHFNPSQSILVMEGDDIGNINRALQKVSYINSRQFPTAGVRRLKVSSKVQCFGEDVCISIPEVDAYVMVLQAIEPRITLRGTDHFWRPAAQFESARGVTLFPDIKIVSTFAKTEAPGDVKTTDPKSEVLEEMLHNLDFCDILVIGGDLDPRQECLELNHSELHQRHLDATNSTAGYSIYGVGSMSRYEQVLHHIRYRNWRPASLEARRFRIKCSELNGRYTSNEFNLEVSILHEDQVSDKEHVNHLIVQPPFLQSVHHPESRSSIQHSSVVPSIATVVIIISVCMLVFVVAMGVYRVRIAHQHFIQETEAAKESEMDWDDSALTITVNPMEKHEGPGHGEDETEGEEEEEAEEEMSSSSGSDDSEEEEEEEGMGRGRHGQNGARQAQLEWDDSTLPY
# FLAG-Alcalpha = tested on: T2, FLAG-Alcalpha
# T2 sequence 1: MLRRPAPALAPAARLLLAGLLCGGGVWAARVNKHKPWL
# T2 sequence 2: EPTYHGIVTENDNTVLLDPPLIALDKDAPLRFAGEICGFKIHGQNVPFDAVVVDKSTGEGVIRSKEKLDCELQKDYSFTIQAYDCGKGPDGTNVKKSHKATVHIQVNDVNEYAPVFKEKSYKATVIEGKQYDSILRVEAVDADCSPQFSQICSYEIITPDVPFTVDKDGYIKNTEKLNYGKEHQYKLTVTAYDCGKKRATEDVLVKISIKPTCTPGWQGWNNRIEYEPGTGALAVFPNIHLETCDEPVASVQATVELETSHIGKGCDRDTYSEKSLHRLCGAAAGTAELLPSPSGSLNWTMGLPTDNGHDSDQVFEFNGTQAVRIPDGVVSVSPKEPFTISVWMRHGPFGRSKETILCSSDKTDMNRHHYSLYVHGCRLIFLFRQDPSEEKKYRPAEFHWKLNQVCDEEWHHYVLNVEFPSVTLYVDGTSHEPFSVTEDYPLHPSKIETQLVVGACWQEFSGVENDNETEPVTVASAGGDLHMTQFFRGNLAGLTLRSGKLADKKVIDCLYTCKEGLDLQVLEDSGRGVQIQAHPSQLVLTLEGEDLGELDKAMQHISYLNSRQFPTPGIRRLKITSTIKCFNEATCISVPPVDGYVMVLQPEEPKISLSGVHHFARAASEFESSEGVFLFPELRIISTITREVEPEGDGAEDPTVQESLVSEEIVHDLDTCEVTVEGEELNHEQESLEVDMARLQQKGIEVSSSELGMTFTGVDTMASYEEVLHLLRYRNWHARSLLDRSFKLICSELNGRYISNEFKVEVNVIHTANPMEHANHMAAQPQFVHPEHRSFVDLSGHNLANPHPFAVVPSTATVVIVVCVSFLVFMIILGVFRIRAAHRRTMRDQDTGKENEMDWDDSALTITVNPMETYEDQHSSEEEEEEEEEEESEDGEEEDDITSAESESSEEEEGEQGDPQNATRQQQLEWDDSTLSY
# FLAG-Alcbeta = tested on: T3, FLAG-Alcbeta
# T3 sequence 1: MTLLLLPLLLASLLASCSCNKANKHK
# T3 sequence 2: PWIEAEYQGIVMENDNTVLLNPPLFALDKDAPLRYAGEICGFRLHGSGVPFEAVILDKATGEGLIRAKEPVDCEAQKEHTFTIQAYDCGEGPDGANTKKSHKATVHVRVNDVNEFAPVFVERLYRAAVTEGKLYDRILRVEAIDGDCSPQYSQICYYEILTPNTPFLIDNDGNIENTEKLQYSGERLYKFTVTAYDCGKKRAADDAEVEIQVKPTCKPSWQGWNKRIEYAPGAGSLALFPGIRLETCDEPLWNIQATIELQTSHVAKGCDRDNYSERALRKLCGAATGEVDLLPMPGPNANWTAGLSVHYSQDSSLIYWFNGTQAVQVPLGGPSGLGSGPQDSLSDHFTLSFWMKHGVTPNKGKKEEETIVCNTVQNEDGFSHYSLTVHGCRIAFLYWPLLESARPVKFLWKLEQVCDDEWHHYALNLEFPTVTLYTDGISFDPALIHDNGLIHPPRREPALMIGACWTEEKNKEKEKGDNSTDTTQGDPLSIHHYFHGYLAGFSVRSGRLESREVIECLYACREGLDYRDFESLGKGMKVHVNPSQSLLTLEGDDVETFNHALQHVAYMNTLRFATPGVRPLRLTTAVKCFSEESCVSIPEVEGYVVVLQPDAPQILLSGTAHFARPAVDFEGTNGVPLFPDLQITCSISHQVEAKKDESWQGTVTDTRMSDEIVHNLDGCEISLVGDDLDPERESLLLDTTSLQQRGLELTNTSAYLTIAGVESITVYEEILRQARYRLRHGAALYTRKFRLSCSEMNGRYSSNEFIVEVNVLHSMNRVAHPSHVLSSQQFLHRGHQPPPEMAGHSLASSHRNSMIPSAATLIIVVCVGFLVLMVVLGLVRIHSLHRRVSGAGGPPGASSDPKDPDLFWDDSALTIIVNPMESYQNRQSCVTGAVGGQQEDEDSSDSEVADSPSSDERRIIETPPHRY
# ADAM10-HA, sequence (O14672 whole entry): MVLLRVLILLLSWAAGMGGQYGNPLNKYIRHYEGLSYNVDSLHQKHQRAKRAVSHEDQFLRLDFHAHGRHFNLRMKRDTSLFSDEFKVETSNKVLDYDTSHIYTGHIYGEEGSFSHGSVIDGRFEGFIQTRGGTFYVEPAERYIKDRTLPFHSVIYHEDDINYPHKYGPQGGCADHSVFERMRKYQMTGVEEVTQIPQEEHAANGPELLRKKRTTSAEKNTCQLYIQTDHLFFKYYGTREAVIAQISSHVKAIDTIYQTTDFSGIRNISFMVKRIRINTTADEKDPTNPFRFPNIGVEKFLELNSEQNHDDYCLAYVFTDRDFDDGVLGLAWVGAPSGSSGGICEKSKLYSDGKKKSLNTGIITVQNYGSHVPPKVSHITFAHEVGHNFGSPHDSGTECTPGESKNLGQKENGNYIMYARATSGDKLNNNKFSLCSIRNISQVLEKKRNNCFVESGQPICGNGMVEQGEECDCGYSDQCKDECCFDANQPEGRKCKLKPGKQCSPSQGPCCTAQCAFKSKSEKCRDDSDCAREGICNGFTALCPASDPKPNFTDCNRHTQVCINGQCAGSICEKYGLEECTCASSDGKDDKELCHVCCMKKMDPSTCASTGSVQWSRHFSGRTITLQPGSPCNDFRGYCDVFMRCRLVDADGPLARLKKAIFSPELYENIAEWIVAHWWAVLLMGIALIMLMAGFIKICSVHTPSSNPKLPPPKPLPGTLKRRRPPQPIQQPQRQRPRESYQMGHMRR
# FLAG-APP, sequence (P05067 whole entry, looked up): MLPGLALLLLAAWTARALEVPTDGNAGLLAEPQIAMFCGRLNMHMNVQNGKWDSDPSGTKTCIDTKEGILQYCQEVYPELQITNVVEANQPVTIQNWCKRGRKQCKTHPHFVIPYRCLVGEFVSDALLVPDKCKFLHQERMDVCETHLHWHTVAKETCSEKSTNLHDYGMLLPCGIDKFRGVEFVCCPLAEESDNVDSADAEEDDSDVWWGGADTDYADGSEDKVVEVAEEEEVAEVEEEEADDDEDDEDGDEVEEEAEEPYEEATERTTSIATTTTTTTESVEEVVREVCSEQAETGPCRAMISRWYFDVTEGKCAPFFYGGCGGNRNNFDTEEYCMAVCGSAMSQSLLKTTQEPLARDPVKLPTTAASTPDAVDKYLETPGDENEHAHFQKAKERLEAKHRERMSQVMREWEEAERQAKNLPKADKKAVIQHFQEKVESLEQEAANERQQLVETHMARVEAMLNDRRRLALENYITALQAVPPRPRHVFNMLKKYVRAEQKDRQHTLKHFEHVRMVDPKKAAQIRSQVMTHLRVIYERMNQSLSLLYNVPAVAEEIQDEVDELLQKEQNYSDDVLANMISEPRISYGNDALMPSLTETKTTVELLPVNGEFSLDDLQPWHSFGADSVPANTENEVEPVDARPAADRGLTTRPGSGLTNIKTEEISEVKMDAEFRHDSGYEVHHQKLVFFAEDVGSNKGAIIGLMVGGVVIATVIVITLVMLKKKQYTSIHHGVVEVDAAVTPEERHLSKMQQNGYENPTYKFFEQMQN
substance,measurement,setting,value
ADAM10-HA,amount of sAPP secreted by ADAM (-/-) MEFs with exogenous ADAM10 against without,FLAG-APP,about 1.7 fold over that of sAPP secreted by ADAM (-/-) MEFs
same,amount of sAlcgamma secreted by ADAM (-/-) MEFs with exogenous ADAM10,FLAG-Alcgamma,"The amounts of sAlcalpha, sAlcbeta, and sAlcgamma secreted by ADAM (-/-) MEFs were restored in response to the expression of exogenous ADAM10"
same,amount of sAlcalpha secreted by ADAM (-/-) MEFs with exogenous ADAM10,FLAG-Alcalpha,"The amounts of sAlcalpha, sAlcbeta, and sAlcgamma secreted by ADAM (-/-) MEFs were restored in response to the expression of exogenous ADAM10"
same,amount of sAlcbeta secreted by ADAM (-/-) MEFs with exogenous ADAM10,FLAG-Alcbeta,"The amounts of sAlcalpha, sAlcbeta, and sAlcgamma secreted by ADAM (-/-) MEFs were restored in response to the expression of exogenous ADAM10"
